The NTF2 design screens of Basanta et al. (2020)

Test: protease stability score; higher = more stable; yeast display proteolysis, trypsin and chymotrypsin;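 note: relative to predicted unfolded state with 0 unfolded-like and 1 meaning tenfold more protease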

Row | Sequence | protease stability score
1 | SELDENVKRITDIFIHAILTGDEHKIRKLLDPHVRTVVDGVEYIGREWFAEWVKHMRIDDHRIKTIEIRNQGDYAHVHIHGRTLGEYDGKHSTVNMFIHMHFVKFDGKWFVHELNVHII | 2.06
2 | SELDEYMHRMMKWILEEEITGDEERFLHLADPHVRSRIDVGEWKWDHHGRDAIRVYREQVDHITHVKVSNFHVQGDKAISDVHEEVRVGDKHVIRRIEIIVIVIDGKVHSIELEIK | 0.357
3 | SELDHAAEHLYRLFYHLERTGDEETLMDNMDPNARNEQGEFEYHGREFIEWVSEHLGINVIRVKRVDLRVINGRMILDIDYRVHIGDKTIQRHIHVVINKVNGKWIVEKLRIEWR | 0.79
4 | SELDHLTKHAMELWLRLLETGDEHSEHRLADPNVRLDVNGKELHGMEEILEHLSRLGIKVFRVKDTELVGNKLHLIGELEFDGKRVETHVIAWKINGRWHLHRREIR | 1.57
5 | SELDKVAEEHMEHFFHLYRTGDEDMTHELLDPHVRVSINGVETVGRELATKEVIDWVRKVKNVKTHIHHIEKINGKVIVDTRIHINGVDFRLVIWADKVNGRWHIREMEIR | 1.36
6 | SELDRDVEHVLKELAKAMRTGDEEMLHDMIDPNARMIVDGKNLHGREQIWKFFTELRVDSRRYEVKHSEIQGNKLEIDGRTRIIIIVNGREIDRETHTEIILLKINGKWLMHSVRIE | 1.07
7 | SELDTLVEEVAEIIVKYLITGDEDSLLKMLDPNMRTDINGREIHGREVTHEFLRQEKERLGVSRIQMRLESFRVQGDKIIIHGTLHYNGKDFEVIVIIIVWNGRIREIRIEIR | 1.4
8 | SELEDATEFAIKVLLEVLRTGDWLEFEKMVDPNVRSSINGVELHGRRRLSHEILREWMELGIKHLDVHLKHKELQGDKLILIVELRLDVNGREIRRETELILLKVDGRWLLTEVRVK | 1.58
9 | SELEDMLRHMFDLFWRAFRTGDWELLMRLADPHVRLEVRFNGRHIEHVGRESFVESVETLRHEWRIDHLRINDEKYQGDYVNLNTRMDVFFDGVKVRTDTRVHSVVVNGRLREFSIEFG | 0.495
10 | SELEEAVRRWLELFFKLFWTGNEEILTDLFDPNVRLEVGDKVFIGREEVSRHLREFRERVKNLRMHVHDVKLINGVVHMDIEIDINGVRTKAHTDWIVIDGRHHSQIIKIN | 0.525
11 | SELEEDMRYLLKLILDAFRTGDEHTFARLFDPHVRIEIGDKEFVGREFVLHHAHQLRIKRSHFNVEHFEWQGNKIRMHGILHFHGRFDGQERESYVDIHIVIEKVDGRWLVKSLHIH | 1.63
12 | SELEEEAKELIEEWLHSFSTGDEKKLYELADPDDRLLFNGVEFVGREEMLKNFRDLYRKWGVTRVEADVKRIHVFNGVAHSDTVSHYNGVRVKTHLVIEKINGRWRVSSLHIH | 1.42
13 | SELEEEALHLMELYLKSVMTGDEESIRRLADPNVRFEVDINGKKLELHGWKEETKFWREIWVRELRVRDKDAIGNKVHSVVEINVDVNGKEIRRESEEHYIIVDGRLHIISFRVN | 1.27
14 | SELEEEARKMNERFWRDMITGDFDSLVRLADPHVKVLYGDKFSIGREVFEEHLRHLGIKVSHLRNLDVQGDKVIVHGESKFNGKTFELEIIMRKFDGRWFIETVNLQ | 0.973
15 | SELEEEMEKWARDFLRLWFTGDEETTERLFDPHARMDVNGVQNHGWEMMSRQLTHYINHIRIRDLEVETISQQGDKIYVHGQENVEIGDKHLRYHTHIELVIVNGRVQEVRIEVK | 0.993
16 | SELEEENRQALKESLREWETGDEKRLHENADPNARLQYGDKHYHGRENVSHMLTHIIEKFGIDHMRVRDFRVQGEKVETHVELRVGDKHLHIRIITMKVNGKWLFHSVHMHIE | 0.997
17 | SELEEESHKFFREFYRVIETGDEDRLEELADPHVRNDFNGVLIHGREEMRKMREKVHKQLGVTRVEVTVRDMKIQGDKAISHGVFHIGEKDFIVTLISEKINGRWILHSIEVR | 1.2
18 | SELEEEVRRAVTFWLEALMTGDEESVSHMLDPNVRVDIDGRDLHGREKMIETMKHIRIKHIELTSIKVINGRAHIHTKVDGEFNGRRDTLDVEIIITKINGKWVVKEVNVK | 1.7
19 | SELEEFARKLMHIYSFAFLTGDWRLHEHMLDPHVRQEQGDKELHGMEDLERLMKRIDHVKHVEMLIEHLEVQGDKVRAHGKWRLIGTVNGQDVDVTIRAHFNIEKFDGVWVVREVRLL | 2.58
20 | SELEEHATKMLQMVLEWWFTGDEEIFKHLADPHVRVESLINGVEIRRVGMEKLHEWLKHVLIHLRFEDMKVKHLEIINGVARQDTRTHMDVNGKHVDLETHVVVVNVNGRLKSIKIEIR | 0.971
